# ± gives the uncertainty stated by the source.
# Test: protein stability index of a GFP-peptide fusion (yeast GPS) (PSI 1-4); higher = more stable; sorted into four equal gates, so the index is relative within each strain
# Conditions: doa10∆
# Outline: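 Sequencing reads from sorted gates were used to score each peptide. The library consisted of tiled 17-residue yeast protein peptides fused downstream of GFP on a Cherry-expressing plasmid, pooled and carried in yeast. Mid-log cultures in leucine-free medium were split into four equal gates by GFP/Cherry ratio, and each gate's plasmids were PCR-amplified and Illumina-sequenced. The protein stability index adds up, over all gates, the read frequency multiplied by the gate number.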
row,Sequence,protein stability index
1,GNIFSNIGTPSFNMAQI [SNF5],2.58 ± 0.099
2,GNPTNISSPIVANSPNK [YDL088C/ASM4],1.3 ± 0.13
3,GNPVNDANLLGAEVLIK [COR1],2.56 ± 0.086
4,GNYVIIIGHNPDENKTR [RPL2A],2.97 ± 0.088
5,GPANNPNEFMQFKSKEV [PRP8],3.1 ± 0.11
6,GPIKTPVGACATSVESV [FAS2],1.39 ± 0.073
7,GPPYTTDEHLIFNSGKM [ISW2],3.13 ± 0.059
8,GPSSVHNAKNGTLDKNS [SNF2],2.66 ± 0.22
9,GQGAFGNMCRGGRMFAP [RPL4A],3.61 ± 0.2
10,GQLGEMAKCLDNPDQGI [YCS4],3.13 ± 0.14
11,GQLTGIYRYKYKVMHQI [PRP8],2.9 ± 0.14
12,GQMAPIGTGAFDVMIDE [RPO21],2.29 ± 0.12
13,GQNLKDLLVNFSAGAAA [RPP1A],2.27 ± 0.13
14,GQQSVEGKRIAFGFVDR [RPO21],3.25 ± 0.2
15,GQSINDSLKKLLPQWDD [ARP9],2.88 ± 0.047
16,GRGTLFVRGDSKIFRFQ [RPL24A],1.58 ± 0.05
17,GRKYTTLGKLSTSVGWK [RPL16B],2.79 ± 0.1
18,GRLDRKVEIPLPNEAGR [RPT4],3.16 ± 0.13
19,GRLRNKSHKQTIVTGGG [RPP1],2.57 ± 0.093
20,GRYLLTPPDDLHPYVPS [SRB8],2.36 ± 0.057
21,GSFNEMKRNCGQIITLF [RMP1],2.74 ± 0.064

row,Sequence,protein stability index
1,GSGVDSSKLQLTKKYSF [RRP42],2.67 ± 0.12
2,GSHLFSIHAHGSTDVGY [PUP1],2.58 ± 0.078
3,GSIFTHETTFMTAMRLM [YML031W/NDC1],1.88 ± 0.072
4,GSLSGNSSSMEEVMRIA [ESC2],2.9 ± 0.074
5,GSLWVEFCDEPSVGVKT [RPB5],2.84 ± 0.054
6,GSPSLTSPQYIPSPLSS [NUT1],2.56 ± 0.042
7,GSSASSRKAHGLNAKQL [POP1],3.21 ± 0.069
8,GSSRIIASDGSECIVSI [RRP42],3.33 ± 0.14
9,GSVLLTLLNFVSNNVLR [ECM29],1.43 ± 0.054
10,GSYIDKKCPFTGLVSIR [RPS11A],2.12 ± 0.07
11,GTGRSGQGAFGNMCRGG [RPL4A],3.49 ± 0.14
12,GTISIQLKNGLLEKYNT [MTR3],2.28 ± 0.059
13,GTQMTLKTFHFAGVASM [RPO31],1.63 ± 0.11
14,GTSKYLINGHRAPQQSV [SMC2],2.13 ± 0.054
15,GTSVISMKYDNGVIIAA [PRE4],2.05 ± 0.19
16,GVEEEEELKDSEINEIL [SNF2],3.14 ± 0.16
17,GVFDPASYSKYLIDHIK [RPL22B],3.12 ± 0.051
18,GVIDDSFDVAISTACPR [SMC4],2.59 ± 0.077
19,GVNELAPIPKGRVKYTK [POP1],3.05 ± 0.08
20,GVPDDKWEQTYKKPTGG [FAS1],3.38 ± 0.07
21,GVQTAYIDYSSKRYIPS [RRP40],2.43 ± 0.067

# Same assay, conditions: pdr5∆
row,Sequence,protein stability index
1,GNIFSNIGTPSFNMAQI [SNF5],2.66 ± 0.093
2,GNPTNISSPIVANSPNK [YDL088C/ASM4],2.06 ± 0.14
3,GNPVNDANLLGAEVLIK [COR1],3.02 ± 0.093
4,GNYVIIIGHNPDENKTR [RPL2A],3.32 ± 0.093
5,GPANNPNEFMQFKSKEV [PRP8],3.31 ± 0.083
6,GPIKTPVGACATSVESV [FAS2],2.13 ± 0.12
7,GPPYTTDEHLIFNSGKM [ISW2],3.26 ± 0.058
8,GPSSVHNAKNGTLDKNS [SNF2],3.03 ± 0.22
9,GQGAFGNMCRGGRMFAP [RPL4A],3.06 ± 0.27
10,GQLGEMAKCLDNPDQGI [YCS4],3.49 ± 0.12
11,GQLTGIYRYKYKVMHQI [PRP8],2.2 ± 0.13
12,GQMAPIGTGAFDVMIDE [RPO21],2.3 ± 0.13
13,GQNLKDLLVNFSAGAAA [RPP1A],2.18 ± 0.2
14,GQQSVEGKRIAFGFVDR [RPO21],3.01 ± 0.2
15,GQSINDSLKKLLPQWDD [ARP9],2.86 ± 0.044
16,GRGTLFVRGDSKIFRFQ [RPL24A],1.74 ± 0.076
17,GRKYTTLGKLSTSVGWK [RPL16B],1.94 ± 0.1
18,GRLDRKVEIPLPNEAGR [RPT4],3.27 ± 0.1
19,GRLRNKSHKQTIVTGGG [RPP1],2.89 ± 0.081
20,GRYLLTPPDDLHPYVPS [SRB8],2.41 ± 0.056
21,GSAADTQAIADIVQYHL [PRE3],3.26 ± 0.19

row,Sequence,protein stability index
1,GSFNEMKRNCGQIITLF [RMP1],2.91 ± 0.06
2,GSGVDSSKLQLTKKYSF [RRP42],2.8 ± 0.062
3,GSHLFSIHAHGSTDVGY [PUP1],3.01 ± 0.15
4,GSIFTHETTFMTAMRLM [YML031W/NDC1],2.53 ± 0.083
5,GSLSGNSSSMEEVMRIA [ESC2],2.88 ± 0.11
6,GSLWVEFCDEPSVGVKT [RPB5],2.86 ± 0.076
7,GSPSLTSPQYIPSPLSS [NUT1],2.52 ± 0.033
8,GSSASSRKAHGLNAKQL [POP1],3.27 ± 0.084
9,GSSRIIASDGSECIVSI [RRP42],3.27 ± 0.075
10,GSVLLTLLNFVSNNVLR [ECM29],1.31 ± 0.059
11,GSYIDKKCPFTGLVSIR [RPS11A],2.06 ± 0.059
12,GTGRSGQGAFGNMCRGG [RPL4A],3.37 ± 0.078
13,GTISIQLKNGLLEKYNT [MTR3],2.5 ± 0.073
14,GTQMTLKTFHFAGVASM [RPO31],1.85 ± 0.088
15,GTSKYLINGHRAPQQSV [SMC2],2.36 ± 0.047
16,GVEEEEELKDSEINEIL [SNF2],3.33 ± 0.11
17,GVFDPASYSKYLIDHIK [RPL22B],3.1 ± 0.069
18,GVIDDSFDVAISTACPR [SMC4],3.09 ± 0.046
19,GVNELAPIPKGRVKYTK [POP1],2.87 ± 0.06
20,GVPDDKWEQTYKKPTGG [FAS1],3.29 ± 0.1
21,GVQTAYIDYSSKRYIPS [RRP40],2.61 ± 0.057

# Same assay, conditions: san1∆
row,Sequence,protein stability index
1,GNIFSNIGTPSFNMAQI [SNF5],3.05 ± 0.069
2,GNPVNDANLLGAEVLIK [COR1],2.63 ± 0.075
3,GNYVIIIGHNPDENKTR [RPL2A],3.12 ± 0.074
4,GPANNPNEFMQFKSKEV [PRP8],3.19 ± 0.044
5,GPIKTPVGACATSVESV [FAS2],2.15 ± 0.11
6,GPPYTTDEHLIFNSGKM [ISW2],3.06 ± 0.049
7,GQGAFGNMCRGGRMFAP [RPL4A],3.23 ± 0.067
8,GQLGEMAKCLDNPDQGI [YCS4],3.39 ± 0.065
9,GQLTGIYRYKYKVMHQI [PRP8],2.91 ± 0.088
10,GQMAPIGTGAFDVMIDE [RPO21],2.37 ± 0.12
11,GQNLKDLLVNFSAGAAA [RPP1A],2.02 ± 0.21
12,GQQSVEGKRIAFGFVDR [RPO21],3.44 ± 0.11
13,GQSINDSLKKLLPQWDD [ARP9],2.74 ± 0.045
14,GRGTLFVRGDSKIFRFQ [RPL24A],1.95 ± 0.087
15,GRKYTTLGKLSTSVGWK [RPL16B],2.77 ± 0.11
16,GRLDRKVEIPLPNEAGR [RPT4],3.11 ± 0.065
17,GRLRNKSHKQTIVTGGG [RPP1],2.56 ± 0.073
18,GRYLLTPPDDLHPYVPS [SRB8],2.55 ± 0.061
19,GSAADTQAIADIVQYHL [PRE3],2.88 ± 0.17
20,GSFNEMKRNCGQIITLF [RMP1],2.55 ± 0.062
21,GSGVDSSKLQLTKKYSF [RRP42],1.55 ± 0.12

row,Sequence,protein stability index
1,GSHLFSIHAHGSTDVGY [PUP1],2.92 ± 0.077
2,GSIFTHETTFMTAMRLM [YML031W/NDC1],2.71 ± 0.065
3,GSLKLIELLCGLGKSAV [NAS6],3.08 ± 0.098
4,GSLSGNSSSMEEVMRIA [ESC2],2.45 ± 0.12
5,GSLWVEFCDEPSVGVKT [RPB5],3 ± 0.093
6,GSPSLTSPQYIPSPLSS [NUT1],2.65 ± 0.037
7,GSSASSRKAHGLNAKQL [POP1],3.13 ± 0.077
8,GSSRIIASDGSECIVSI [RRP42],3.11 ± 0.061
9,GSVLLTLLNFVSNNVLR [ECM29],1.67 ± 0.1
10,GSYIDKKCPFTGLVSIR [RPS11A],2.27 ± 0.081
11,GTGRSGQGAFGNMCRGG [RPL4A],3.33 ± 0.11
12,GTISIQLKNGLLEKYNT [MTR3],2.42 ± 0.082
13,GTQMTLKTFHFAGVASM [RPO31],1.68 ± 0.13
14,GTSKYLINGHRAPQQSV [SMC2],2.27 ± 0.076
15,GVEEEEELKDSEINEIL [SNF2],2.31 ± 0.12
16,GVFDPASYSKYLIDHIK [RPL22B],2.92 ± 0.06
17,GVIDDSFDVAISTACPR [SMC4],2.45 ± 0.058
18,GVNELAPIPKGRVKYTK [POP1],3.17 ± 0.066
19,GVPDDKWEQTYKKPTGG [FAS1],3.2 ± 0.093
20,GVQTAYIDYSSKRYIPS [RRP40],2.48 ± 0.1

# Same assay, conditions: ubr1∆
row,Sequence,protein stability index
1,GNIFSNIGTPSFNMAQI [SNF5],2.64 ± 0.054
2,GNPTNISSPIVANSPNK [YDL088C/ASM4],1.82 ± 0.1
3,GNPVNDANLLGAEVLIK [COR1],2.89 ± 0.035
4,GNYVIIIGHNPDENKTR [RPL2A],2.87 ± 0.082
5,GPANNPNEFMQFKSKEV [PRP8],3.43 ± 0.11
6,GPIKTPVGACATSVESV [FAS2],2.22 ± 0.077
7,GPPYTTDEHLIFNSGKM [ISW2],2.99 ± 0.048
8,GPSSVHNAKNGTLDKNS [SNF2],2.74 ± 0.17
9,GQGAFGNMCRGGRMFAP [RPL4A],3.4 ± 0.11
10,GQLGEMAKCLDNPDQGI [YCS4],3.29 ± 0.15
11,GQLTGIYRYKYKVMHQI [PRP8],2.42 ± 0.081
12,GQMAPIGTGAFDVMIDE [RPO21],2.54 ± 0.057
13,GQNLKDLLVNFSAGAAA [RPP1A],2.13 ± 0.15
14,GQQSVEGKRIAFGFVDR [RPO21],3.52 ± 0.14
15,GQSINDSLKKLLPQWDD [ARP9],2.88 ± 0.04
16,GRGTLFVRGDSKIFRFQ [RPL24A],2.21 ± 0.065
17,GRKYTTLGKLSTSVGWK [RPL16B],2.64 ± 0.067
18,GRLDRKVEIPLPNEAGR [RPT4],3.09 ± 0.1
19,GRLRNKSHKQTIVTGGG [RPP1],2.92 ± 0.074
20,GRYLLTPPDDLHPYVPS [SRB8],2.66 ± 0.039
21,GSAADTQAIADIVQYHL [PRE3],2.99 ± 0.13

row,Sequence,protein stability index
1,GSFNEMKRNCGQIITLF [RMP1],2.87 ± 0.052
2,GSGVDSSKLQLTKKYSF [RRP42],2.83 ± 0.071
3,GSHLFSIHAHGSTDVGY [PUP1],2.02 ± 0.081
4,GSIFTHETTFMTAMRLM [YML031W/NDC1],2.64 ± 0.081
5,GSLSGNSSSMEEVMRIA [ESC2],2.73 ± 0.083
6,GSLWVEFCDEPSVGVKT [RPB5],2.92 ± 0.053
7,GSPSLTSPQYIPSPLSS [NUT1],2.52 ± 0.028
8,GSSASSRKAHGLNAKQL [POP1],3.04 ± 0.066
9,GSSRIIASDGSECIVSI [RRP42],3.12 ± 0.15
10,GSVLLTLLNFVSNNVLR [ECM29],2.03 ± 0.073
11,GSYIDKKCPFTGLVSIR [RPS11A],2.2 ± 0.049
12,GTGRSGQGAFGNMCRGG [RPL4A],3.24 ± 0.063
13,GTISIQLKNGLLEKYNT [MTR3],2.43 ± 0.037
14,GTQMTLKTFHFAGVASM [RPO31],2.1 ± 0.12
15,GTSKYLINGHRAPQQSV [SMC2],2.22 ± 0.052
16,GVEEEEELKDSEINEIL [SNF2],2.72 ± 0.075
17,GVFDPASYSKYLIDHIK [RPL22B],2.9 ± 0.043
18,GVIDDSFDVAISTACPR [SMC4],2.7 ± 0.049
19,GVNELAPIPKGRVKYTK [POP1],2.67 ± 0.069
20,GVPDDKWEQTYKKPTGG [FAS1],3.09 ± 0.069
21,GVQTAYIDYSSKRYIPS [RRP40],2.33 ± 0.068
